Measurements taken from the RNAGym collection of RNA variant scans (doi:10.7554/elife.80360).

B1: CPEB3 Ribozyme (parent)
chain: GGGGGCCACAGCAGAAGCGUUCACGUCGCGGCCCCUGUCAGAUUCUGGUGAAUCUGCGAAUUCUGCUGU

Variants of: B1
Experiment: self-cleavage, relative activity (ratio to wild type); higher = more cleavage; co-transcriptional
Variant A13C G17U has a self-cleavage of 0.125. Work on G11U U36A yielded a self-cleavage of 0.164. In the case of G11A U26G, the self-cleavage is reported as 0.734. G11U U55A gave a self-cleavage of 0.36. With G11U U55C the self-cleavage was 0.302. With C12A A51U the self-cleavage was 0.628. Work on C12A A51C yielded a self-cleavage of 0.544. In the case of G11C A15G, the self-cleavage is reported as 0.627. C12U C35U gave a self-cleavage of 0.947. Work on C12U C35G yielded a self-cleavage of 0.45. For C12U C35A, the self-cleavage was 0.275. C12G G58C showed a self-cleavage of 0.834. Variant A13C G19C has a self-cleavage of 0.107. In the case of A13C G19A, the self-cleavage is reported as 0.109. For G11C G50C, the self-cleavage was 0.748. With G11C C22G the self-cleavage was 0.18. C12U U62C showed a self-cleavage of 0.511. For C12U C45U, the self-cleavage was 1.01. In the case of C12U C45G, the self-cleavage is reported as 0.98. Work on C12A U38C yielded a self-cleavage of 0.516. Work on C12A U38A yielded a self-cleavage of 0.493. G11U G30U showed a self-cleavage of 0.263. C12U C32U gave a self-cleavage of 0.999. With C12G C63U the self-cleavage was 0.53. G11U G25C showed a self-cleavage of 0.0857. G11A U69C showed a self-cleavage of 1.03. With C12G G28U the self-cleavage was 0.11. With G11C G56C the self-cleavage was 0.176. G11C G37U gave a self-cleavage of 0.165. Variant C12U G41A has a self-cleavage of 0.716. C12U G41C showed a self-cleavage of 0.617. C12U C33A showed a self-cleavage of 0.924. Variant C12U C33G has a self-cleavage of 0.656. G11C C27G showed a self-cleavage of 0.104. G11C C57A gave a self-cleavage of 0.252. C12U C39A showed a self-cleavage of 0.756. In the case of C12U G30C, the self-cleavage is reported as 0.67. C12U G30U showed a self-cleavage of 0.368. A13C A40G gave a self-cleavage of 0.738. C12A C45U gave a self-cleavage of 0.72. For C12A C27G, the self-cleavage was 0.171. G11A U53A showed a self-cleavage of 0.533. With C12U G19U the self-cleavage was 0.339. In the case of G11U A16G, the self-cleavage is reported as 0.572. Work on G11U C34A yielded a self-cleavage of 0.694. A13C G25U showed a self-cleavage of 0.104. A13C G25A gave a self-cleavage of 0.129. With G11C G58C the self-cleavage was 0.751. Work on G11C G58U yielded a self-cleavage of 0.896. For C12G G41U, the self-cleavage was 0.377. C12G G41C showed a self-cleavage of 0.416. Work on C12A G30C yielded a self-cleavage of 0.194. In the case of G11C U61C, the self-cleavage is reported as 0.203. Work on G11C G41U yielded a self-cleavage of 0.238. G11C G41C showed a self-cleavage of 0.257. Variant G11U C45G has a self-cleavage of 0.772. For G11U A40U, the self-cleavage was 0.256. G11C U38C gave a self-cleavage of 0.7. C12G C22G showed a self-cleavage of 0.208. With C12G C22A the self-cleavage was 0.164. G11C A16U showed a self-cleavage of 0.49. Work on G11C A16C yielded a self-cleavage of 0.276. With C12U G50U the self-cleavage was 0.953. C12A U36G gave a self-cleavage of 0.154. C12A U36A gave a self-cleavage of 0.194. Variant G11C C66G has a self-cleavage of 0.943. G11C C66U showed a self-cleavage of 0.939. In the case of A13C C33U, the self-cleavage is reported as 0.774. Work on A13C C33G yielded a self-cleavage of 0.231. Work on G11U U53A yielded a self-cleavage of 0.562. For C12G U20C, the self-cleavage was 0.119. Variant G11U G50A has a self-cleavage of 0.896. G11C C54A showed a self-cleavage of 0.252. C12A U69G gave a self-cleavage of 0.925. Work on G11C U21A yielded a self-cleavage of 0.827. For C12A G28A, the self-cleavage was 0.13. Work on A13C C32U yielded a self-cleavage of 0.89. Work on A13C C32G yielded a self-cleavage of 0.192. In the case of A13C G41A, the self-cleavage is reported as 0.27. Variant C12A U49C has a self-cleavage of 0.73. With C12U U44G the self-cleavage was 0.866. C12U U44A gave a self-cleavage of 0.954. Variant C12A A60C has a self-cleavage of 0.264. With G11U G48U the self-cleavage was 0.939. Variant G11U G48A has a self-cleavage of 0.917. Variant A13C G37C has a self-cleavage of 0.156. For C12U C57U, the self-cleavage was 0.317. In the case of G11C U44C, the self-cleavage is reported as 0.459. For G11C U44G, the self-cleavage was 0.662. For G11C U55A, the self-cleavage was 0.271. For G11C U55G, the self-cleavage was 0.165. With G11U C24A the self-cleavage was 0.308. In the case of C12A G41A, the self-cleavage is reported as 0.213. Work on C12G U67C yielded a self-cleavage of 0.917. G11C A23C showed a self-cleavage of 0.672. In the case of G11C A23G, the self-cleavage is reported as 0.626. With C12A U64A the self-cleavage was 0.582. C12A U64C showed a self-cleavage of 0.58. Work on C12G U38C yielded a self-cleavage of 0.745. For C12A A13U, the self-cleavage was 0.15. With C12U U49A the self-cleavage was 1.02. C12U C63A gave a self-cleavage of 0.56. With C12U C63U the self-cleavage was 0.898. In the case of G11C C12U, the self-cleavage is reported as 0.452. G11C C12G showed a self-cleavage of 0.211. For A13C C24G, the self-cleavage was 0.0828. C12G C39A gave a self-cleavage of 0.484. Variant C12U C22A has a self-cleavage of 0.2. C12U C24A showed a self-cleavage of 0.713. With C12U C24G the self-cleavage was 0.316. Work on C12U C24U yielded a self-cleavage of 0.805. For A13C G50A, the self-cleavage was 0.913. In the case of G11C G17A, the self-cleavage is reported as 0.103. With C12G G37U the self-cleavage was 0.223. For C12G G37C, the self-cleavage was 0.205. Variant C12A G37U has a self-cleavage of 0.18. C12A G37C showed a self-cleavage of 0.149. With C12A G37A the self-cleavage was 0.187. In the case of G11C C33A, the self-cleavage is reported as 0.547. For G11C C33U, the self-cleavage was 0.827. In the case of C12U G14U, the self-cleavage is reported as 0.345. Work on C12U G14C yielded a self-cleavage of 0.146. In the case of C12G U49A, the self-cleavage is reported as 0.934. Work on C12G U49C yielded a self-cleavage of 0.827. Work on G11C C39U yielded a self-cleavage of 0.399. For C12G G56U, the self-cleavage was 0.544. C12G G56A gave a self-cleavage of 0.741. Work on C12A yielded a self-cleavage of 0.806. C12U gave a self-cleavage of 0.996. C12G gave a self-cleavage of 0.92. For C12G U62C, the self-cleavage was 0.458. C12G U62A gave a self-cleavage of 0.349. C12U U36C gave a self-cleavage of 0.892. Variant G11A U62G has a self-cleavage of 0.331. In the case of G11U C54G, the self-cleavage is reported as 0.412. With G11U C54U the self-cleavage was 0.819. G11U C54A gave a self-cleavage of 0.361. C12G U36C showed a self-cleavage of 0.669. In the case of C12U U61C, the self-cleavage is reported as 0.579. For C12U U61G, the self-cleavage was 0.644. With C12A C29A the self-cleavage was 0.121. Variant G11C G19A has a self-cleavage of 0.0742. G11C G19U gave a self-cleavage of 0.158. With G11C C35U the self-cleavage was 0.758. G11C C35A showed a self-cleavage of 0.205. With C12A G25A the self-cleavage was 0.155. In the case of C12A G25U, the self-cleavage is reported as 0.1. For G11A U67A, the self-cleavage was 0.934. Variant C12G G17U has a self-cleavage of 0.165. G11C U69C showed a self-cleavage of 1.01. Work on G11C U69G yielded a self-cleavage of 0.97. In the case of G11C U69A, the self-cleavage is reported as 0.921. Work on G11C A42C yielded a self-cleavage of 0.151. For C12A C54U, the self-cleavage was 0.688. Work on A13C C57U yielded a self-cleavage of 0.248. With A13C C57G the self-cleavage was 0.235. For A13C, the self-cleavage was 0.913. C12G G25C gave a self-cleavage of 0.166. For C12A U21G, the self-cleavage was 0.0774. For A13C A60U, the self-cleavage was 0.276. Work on C12G A16U yielded a self-cleavage of 0.486. With C12G A16C the self-cleavage was 0.177. With C12U C54U the self-cleavage was 0.968. In the case of G11C G31C, the self-cleavage is reported as 0.167. G11C G31U gave a self-cleavage of 0.536. In the case of G11C G48U, the self-cleavage is reported as 0.912. For G11C A59G, the self-cleavage was 0.718.
